This note sets out measurements from publication PMC5344305.

The experiment addresses adaptor protein-2 (AP-2). As to the kind of experiment: pull-down (IP with AP-2 antibody, western blot densitometry). The settings on record: HEK-293 cells transfected with GFP-V0a1 constructs; n=4; parent: est. 1.0; read off a plot. (In general: In western blotting, separated proteins are transferred to a membrane and probed.)

Consider WT GFP-V0a1 (from UniProt Q93050) C25S, for which the ratio to parent (arbitrary unit) worked out at 0.37.
